The nature of series [1]: aggregate area of transfected HeLa cells. The following applies: glycan lost; control: P0wt-EGFP.
A short description of series [2]: EGFP fluorescence in transfected HeLa cells. The following applies: glycan lost; control: P0wt-EGFP.
A short description of a further series: HeLa adhesion assay. The following applies: glycan changed form; control: untreated P0D61N cells.
Series [3] is described as follows: confocal EGFP imaging of HeLa cells. The conditions noted are these: glycan changed form; control: untreated cells, same construct.

Where two headings read alike, the source gives them in different places.

As to “P0 D109N (Myelin Protein Zero mutant): D109N”, the localisation_or_trafficking result (N-glycosylation at N109) is reported as “decreases”.
As for “P0 K138N (Myelin Protein Zero mutant): K138N”, for the setting “N-glycosylation at N138”, the localisation_or_trafficking entry is “decreases”.
On to “P0 D61N (mouse Mpz knock-in mutant): D61N (MpzD61N/− mice)”, for which the localisation_or_trafficking result (N-glycosylation at N61) was “changes”.
In the case of “P0 D118N (Myelin Protein Zero mutant): D118N”, where the note is “N-glycosylation at N118”, the localisation_or_trafficking result is given as “no change”.
Turning to “P0 D61N (Myelin Protein Zero mutant): D61N”, the localisation_or_trafficking entry (N-glycosylation at N61) is listed as “decreases”.
Turning to “P0 D61N (mouse Mpz knock-in mutant): D61N (MpzD61N/+ mice)”, where the note is “N-glycosylation at N61”, the expression_or_secretion result was “no change”.
With “P0 D61N (Myelin Protein Zero mutant): 750 μM N-butyl-deoxynojirimycin (NB-DNJ) on HeLa cells expressing D61N”, the localisation_or_trafficking entry (N-glycosylation at N61) is reported as “increases”.

B1: P0 (Myelin Protein Zero): N122S (protein)
parent chain: MAPGAPSSSPSPILAVLLFSSLVLSPAQAIVVYTDREVHGAVGSRVTLHCSFWSSEWVSDDISFTWRYQPEGGRDAISIFHYAKGQPYIDEVGTFKERIQWVGDPRWKDGSIVIHNLDYSDNGTFTCDVKNPPDIVGKTSQVTLYVFEKVPTRYGVVLGAVIGGVLGVVLLLLLLFYVVRYCWLRRQAALQRRLSAMEKGKLHKPGKDASKRGRQTPVLYAMLDHSRSTKAVSEKKAKGLGESRKDKK
Turning to B1, in series [1], the “other: homophilic cell adhesion, percent_of_wt” value (“other … percent_of_wt” for short) is listed as “no change”. For the same molecule, the localisation_or_trafficking result in series [2] is “no change”.

B2: P0 (Myelin Protein Zero): T124M (protein)
parent chain: B1 parent chain
Take B2: in series [1], the “other … percent_of_wt” value is “no change”. Further, in series [2], the localisation_or_trafficking result was “no change”.

B3: P0 (Myelin Protein Zero): 750 μM NB-DNJ on P0D61N (protein)
parent chain: B1 parent chain
For the molecule B3, the “other: homophilic cell adhesion” value in “HeLa adhesion assay” is on record as “increases”.

B4: P0 (Myelin Protein Zero): 750 μM NB-DNJ on P0wt (protein)
parent chain: B1 parent chain
Regarding B4, the localisation_or_trafficking entry in series [3] is “no change”.

B5: P0 (Myelin Protein Zero): T124K (protein)
parent chain: B1 parent chain
For B5, the localisation_or_trafficking result in series [2] is on record as “no change”.

B6: P0 (Myelin Protein Zero): T124A (protein)
parent chain: B1 parent chain
Turning to B6, in series [1], the “other … percent_of_wt” value was “no change”. Further, the localisation_or_trafficking result in series [2] was “no change”.

For the origin of these results see publication PMC9759335.
